According to patent US20250032583A1 (GUANGDONG FAPON BIOPHARMA, published 2025):

Target: T1, mPD1 (on CHO-mPD1 cells) (mouse (printed as mPD1), UniProt Q02242 25-288)
T1 construct: whole, on cells; Target of the antibody terminus in the FACS assay
T1 sequence (looked up): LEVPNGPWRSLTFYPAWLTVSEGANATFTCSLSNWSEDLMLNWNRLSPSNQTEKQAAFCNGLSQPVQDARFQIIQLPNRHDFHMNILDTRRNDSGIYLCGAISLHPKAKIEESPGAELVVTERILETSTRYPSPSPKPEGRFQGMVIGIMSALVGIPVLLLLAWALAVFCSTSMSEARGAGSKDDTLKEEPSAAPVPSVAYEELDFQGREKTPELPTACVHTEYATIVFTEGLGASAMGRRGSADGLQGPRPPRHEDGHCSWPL
Experiment: flow cytometry (FACS) on CHO-mPD1 cells, PE secondary antibody, 3-fold dilutions from 400 nM
Procedure: CHO-mPD1 or CHO-hIL-10R cells were centrifuged at 250 g for 5 min, a supernatant was discarded, the cell density was adjusted to 2E+06 by a PBS buffer with 3% BSA, and it was evenly divided into a 96-well V-shaped plate according to 100 μl/tube; the fusion protein molecules diluted above were added to cells, and incubated at 100 μL/well and 2-8° C. for 0.5 h; the 96-well plate was taken out, and centrifuged at 250 g for 5 min, and a supernatant was removed carefully; the PBS buffer with 3% BSA was used to prepare a PE fluorescent secondary antibody (1:500 dilution), it was added to the corresponding 96-well plate according to the volume of 100 μL/well, and the cells were resuspended, and incubated at 2-8° C. for 30 min; the 96-well plate was taken out, and centrifuged at 250 g for 5 min, a supernatant was removed carefully, the PBS buffer with 3% BSA was added at 200 μL/well, and it was centrifuged again at 250 g for 5 min, and a supernatant was removed carefully; and it was resuspended with 1×PBS according to the volume of 100 μL/well, and FACS detection was performed after the resuspension.

B1: R0989 (other)
heavy: QVQLKESGPGLVQPSQTLSLTCTVSGFSLTSYNVHWVRQPPGKGLEWMGGMRYNEDTSYNSALKSRLSISRDTSKNQVFLKMNSLQTDDTGTYYCTRDAVYGGYGGWFAYWGQGTLVTVSSASTKGPSVFPLAPSSKSTSGGTAALGCLVKDYFPEPVTVSWNSGALTSGVHTFPAVLQSSGLYSLSSVVTVPSSSLGTQTYICNVNHKPSNTKVDKRVEPKSCDKTHTCPPCPAPEAAGGPSVFLFPPKPKDTLMISRTPEVTCVVVDVSHEDPEVKFNWYVDGVEVHNAKTKPREEQYNSTYRVVSVLTVLHQDWLNGKEYKCKVSNKALPAPIEKTISKAKGSGSGSGSGQGTQSENSCTHFPGNLPNMLRDLRDAFSRVKTFFQMKDQLDNLLLKESLLEDFKGYLGCQALSEMIQFYLEEVMPQAENQDPDIKAHVNSLGENLKTLRLRLRRCHRFLPCENGGGSGGKSKAVEQVKNAFNKLQEKGIYKAMSEFDIFINYIEAYMTMKIRNGSGSGSGSGQPREPQVYTLPPSREEMTKNQVSLTCLVKGFYPSDIAVEWESNGQPENNYKTTPPVLDSDGSFFLYSKLTVDKSRWQQGNVFSCSVMHEALHNHYTQKSLSLSPGK
light: DTVLTQSPALAVSLGQRVTISCKASETVSSSMYSYIHWYQQKPGQQPKLLIYRASNLESGVPARFSGSGSGTDFTLTIDPVEADDVATYFCQQSWNPWTFGGGTKLELKRTVAAPSVFIFPPSDEQLKSGTASVVCLLNNFYPREAKVQWKVDNALQSGNSQESVTEQDSKDSTYSLSSTLTLSKADYEKHKVYACEVTHQGLSSPVTKSFNRGEC
notes: Anti-PD-1 antibody with the modified IL-10 monomer inserted between CH2 and CH3 through linker2; also called IL-10 monomer fusion protein, IL-10 monomer between CH2 and CH3 of the heavy chain (Position 3)
  binding result: binds
